This is an account of results in US6423539B1, “Adjuvant treatment by in vivo activation of dendritic cells” (The Board of Trustees of the Leland Stanford Junior …, priority 2000, dated 2002).

Experiment [1] deals with circulating blood DC. Put plainly: Clinical study: expansion and phenotype of circulating blood DC after Flt3L administration. In kind it is in vivo, human. On the procedure: Clinical studies were also performed to determine the effect of the activation methods in human patients. It was shown that administration of FL to patients with advanced cancer mobilizes DC precursors into the blood, resulting in an increase of circulating DC of 20 fold on average.
An expansion of circulating blood DC was found following Flt3L administration. PBMC from patients with advanced cancer were assessed either before or following 10 days of Flt3L administration. DC were characterized phenotypically by expression of HLA DR without expression of lineage markers (CD3, 14, 19, 56).
DC were gated on their expression of HLA DR and lack of lineage markers CD3, 14, 19, 56. Flt3L expanded DC express intermediate levels of CD4 and CD54 more homogeneously by comparison with unmobilized DC. Flt3L expanded DC, however, lack surface expression of CD86 and CD40 compared with unmobilized DC. Results are from one patient and are representative of three patients studied.

The subject of experiment [2] is circulating DC. The note with it: administration to mice in vivo; cited from earlier work.

B1: FL: Flt-3 ligand, growth factor that stimulates proliferation of hematopoietic progenitor cells; DC mobilization agent (protein, UniProt P49771 27-235, looked up)
Fms-related tyrosine kinase 3 …: TQDCSFQHSPISSDFAVKIRELSDYLLQDYPVTVASNLQDEELCGGLWRLVLAQRWMERLKTVAGSKMQGLLERVNTEIHFVTKCAFQPPPSCLRFVQTNISRLLQETSEQLVALKPWITRQNFSRCLELQCQPDSSTLPPPWSPRPLEATAPTAPQPPLLLLLLLPVGLLLLAAAWCLHWQRTRRRTPRPGEQVPPVPSPQDLLLVEH
For B1, the “phenotype of expanded human DC” value in experiment [1] (gated HLA DR positive, lineage negative, one patient, representative of three) was “immature phenotype”. The “change in circulating blood DC precursors by flow cytometry” value in experiment [1] (patients with advanced cancer, before vs. after 10 days of Flt3L) is “significant increase”. The “increase of circulating DC” value in experiment [1] (patients with advanced cancer, on average) turned out to be 20 fold. Moreover, the “increase in number of circulating DC” value in experiment [2] is recorded as 10-30 fold.
